From patent publication US20020110853A1 (IMMUNEX, published 2002)

What was measured:
[1] = target: T1, DR3, expressed on transfected COS cells (UniProt Q93038 25-417, limits assumed); assay: slide binding on transfected COS cells, 125I anti-leucine zipper antibody, autoradiography
T1 construct: whole, on cells; also called Apo3; WSL-1
T1 sequence (looked up): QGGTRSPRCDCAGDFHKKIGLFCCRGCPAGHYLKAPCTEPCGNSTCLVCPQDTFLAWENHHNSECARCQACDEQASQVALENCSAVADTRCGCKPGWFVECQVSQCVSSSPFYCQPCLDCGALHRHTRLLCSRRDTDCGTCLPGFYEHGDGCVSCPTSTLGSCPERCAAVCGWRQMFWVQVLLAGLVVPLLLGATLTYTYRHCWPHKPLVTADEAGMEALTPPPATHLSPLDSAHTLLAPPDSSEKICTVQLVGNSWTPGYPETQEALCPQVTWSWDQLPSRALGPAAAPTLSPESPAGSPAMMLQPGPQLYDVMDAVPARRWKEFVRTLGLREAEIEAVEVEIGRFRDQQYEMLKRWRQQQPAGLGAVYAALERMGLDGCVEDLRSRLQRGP
Method: Slides of COS cells were transfected with expression vectors containing TWEAKR, DR3, or vector without insert (control). After two days the cells were incubated with concentrated supernatants from CV-1 cells transfected with a vector encoding the leucine zipper TWEAK extracellular domain fusion protein. One hour later the cells were washed and probed with an ¹²⁵Ilabeled antibody against the leucine-zipper domain. The slides were washed, fixed, and autoradiography was performed using x-ray film. The TWEAKR transfected cells bound significant amounts of TWEAK. […] This experiment confirmed that the TWEAKR polypeptide identified in part A above, rather than DR3, is the major receptor for TWEAK. After discovery of the functional TWEAK receptor, other investigators also reported that DR3 is not the major receptor for TWEAK (Kaptein et al., FEBS Lett., 485(2-3):135, 2000. The TWEAK-TWEAKR binding interaction was further characterized by Scatchard analysis.

[2] = target: T2, human TWEAK receptor (TWEAKR), expressed on transfected COS cells (human, UniProt Q9NP84 28-129); assay: expression cloning by panning with TWEAK coated beads, then slide binding on transfected COS cells
T2 construct: 129 residue polypeptide cloned from a HUVEC library; Signal peptide 1-27 is predicted
T2 sequence: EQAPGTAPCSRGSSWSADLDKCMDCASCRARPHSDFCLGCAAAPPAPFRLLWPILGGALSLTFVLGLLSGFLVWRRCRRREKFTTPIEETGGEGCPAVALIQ
From the text: To clone TWEAKR cDNA, an expression vector encoding a growth hormone leader, a leucine zipper multimerization domain, and the C-terminal extracellular domain of human TWEAK (see Chicheportiche et al., J. Biol. Chem. 272(51):32401, 1997) was constructed. This expression vector, which was named pDC409-LZ-TWEAK, comprised the DNA sequence SEQ ID NO: 1 and encoded the polypeptide SEQ ID NO:2. pDC409-LZ-TWEAK conditioned supernatants were produced by transient transfection into CVI-EBNA cells. These supernatants were incubated with magnetic beads coated with polyclonal goat anti-mouse antibody that had previously been incubated with a mouse monoclonal antibody against the leucine zipper. Control beads were produced by mixing the coated beads with supernatants from cells transfected with empty vector.
A monolayer of COS cells grown in a T175 flask was transfected with 15 μg of DNA pools of complexity of 100,000 from a human umbilical vein endothelial cell (HUVEC) cDNA expression library. After 2 days these cells were lifted from the flask, and incubated in 1.5 mls of binding media plus 5% non-fat dried milk for 3 hours at 4° C. on a rotator wheel. […] Slide binding was performed as described more fully below, with the exception that TWEAKR positive slides were detected by incubation with […] followed by incubation with ¹²⁵I-labled M15 anti-leucine zipper.

[3] = target: T3, human TWEAKR-Fc (TWEAKR extracellular domain fused to Fc portion from human IgG1) (human, 125-I labeled in the Scatchard assay); assay: ligand blot of TweakR-Fc (with and without DTT, with and without heating at 100° C.) probed with TWEAK-leucine zipper supernatant and 125I M15 anti-leucine zipper
T3 construct: the assays name only TWEAKR-Fc; also called huTWEAKR-Fc
Method: Ligand blots were generated by running either TweakR-Fc or RP-Fc as a control on a standard SDS-PAGE and blotted onto nitrocellulose. The separate samples were prepared by with and without the addition of reducing agent (DTT) and with and without heating at 100° C. to denature the proteins. This blot was probed with TWEAK-leucine zipper conditioned supernatants followed by ¹²⁵I labeled M15 anti-leucine zipper.

binding result [1]: no binding
binding result [2]: binds
binding result [3]: binds
B1: leucine zipper TWEAK extracellular domain fusion protein (product of pDC409-LZ-TWEAK) (ligand)
chain: not shown
notes: Used as conditioned supernatant of transfected CV-1/EBNA cells; also called TWEAK-leucine zipper
